This passage reports Kd results from publication doi:10.1101/2020.12.03.409318 (bioRxiv, 2020).

The assay has as its target RBD-mFc (Sino Biologicals) (SARS-CoV-2, wild type (Wuhan-Hu-1 …, UniProt P0DTC2)). Nature of the assay: BLI. For orientation: BLI is a label-free optical method that tracks binding on a fibre tip over time.

B1: STE90-C11 Fab (Fab, V domains shown)
VH: QVQLVESGGGLVQPGGSLRLSCAASGLTVSSNYMSWVRQAPGKGLEWVSVIYSGGSTYYADSVKGRFTISRDDSKNTLYLQMNSLRAEDTAVYYCARDVADAFDIWGQGTMVTVSS
VL: DIVMTQSPSFLSASVGDRVTITCRASQGISSYLAWYQQKPGKAPKLLIYAASTLQSGVPSRFSGSGSGTEFTLTISSLQPEDFATYYCQQLNSYPPFTFGPGTKVDIK
On to B1, for which the equilibrium dissociation constant (Kd) (as a rule, the concentration at which binding is half-saturated) is 8.1 nM.
